Molecular target: active (phosphorylated) human Syk (Merck Millipore) (UniProt P43405)

Substance: catalytically inactive human C373A Cbl-b^29-483 mutant (recombinant, GST fusion protein)
- in vitro poly-ubiquitination of active Syk (Western blot): did not show Syk poly-ubiquitination activity
